Assay results reported in patent US20220196651A1 (ALX ONCOLOGY, published 2022).

Molecular target: Drug A
Experiment: cell-based or functional assay

B1: anti-SIRP multimer G (antibody, mouse IgG2a)
heavy: DVQLVESGGGVVRPGESLRLSCAASGFTFSSNAMSWVRQAPGKGLEWLAGISAGGSDTYYPASVKGRFTISRDNSKNTLYLQMNTLTAEDTAVYYCARETWNHLFDYWGLGTLVTVSSAKTTAPSVYPLAPVCGDTTGSSVTLGCLVKGYFPEPVTLTWNSGSLSSGVHTFPAVLQSDLYTLSSSVTVTSSTWPSQSITCNVAHPASSTKVDKKIEPRGPTIKPCPPCKCPAPNLLGGPSVFIFPPKIKDVLMISLSPIVTCVVVDVSEDDPDVQISWFVNNVEVHTAQTQTHREDYNSTLRVVSALPIQHQDWMSGKEFKCKVNNKDLPAPIERTISKPKGSVRAPQVYVLPPPEEEMTKKQVTLTCMVTDFMPEDIYVEWTNNGKTELNYKNTEPVLDSDGSYFMYSKLRVEKKNWVERNSYSCSVVHEGLHNHHTTKSFSRTPG
light: ALTQPASVSANPGETVKIACSGGDYYSYYYGWYQQKAPGSALVTVIYSDDKRPSDIPSRFSGSASGSTATLTITGVRAEDEAVYYCGGYDYSTYANAFGAGTTLTVLGQPKSSPSVTLFPPSSEELETNKATLVCTITDFYPGVVTVDWKVDGTPVTQGMETTQPSKQSNNKYMASSYLTLTARAWERHSSYSCQVTHEGHTVEKSLSRADCS
How did the “molar excess of Multimer G that mitigated interference, gel card, Drug A 1000 µg/mL” value turn out when B1 was run?
The value was 4 fold molar excess relative to Drug A.

And the “molar excess of Multimer G that mitigated interference, gel card, Drug A 2000 µg/mL” value?
The value was 6 fold molar excess relative to Drug A.

What about the “molar excess of Multimer G that mitigated interference, gel card, Drug A between 0.1 and 100 (printed ng/mL)” value of the same binder?
The value was 3 fold molar excess relative to Drug A.

B2: anti-SIRP multimer E (antibody, mouse IgG1, N297A)
heavy: DVQLVESGGGVVRPGESLRLSCAASGFTFSSNAMSWVRQAPGKGLEWLAGISAGGSDTYYPASVKGRFTISRDNSKNTLYLQMNTLTAEDTAVYYCARETWNHLFDYWGLGTLVTVSSAKTTPPSVYPLAPGSAAQTNSMVTLGCLVKGYFPEPVTVTWNSGSLSSGVHTFPAVLQSDLYTLSSSVTVPSSTWPSETVTCNVAHPASSTKVDKKIVPRDCGCKPCICTVPEVSSVFIFPPKPKDVLTITLTPKVTCVVVDISKDDPEVQFSWFVDDVEVHTAQTQPREEQFASTFRSVSELPIMHQDWLNGKEFKCRVNSAAFPAPIEKTISKTKGRPKAPQVYTIPPPKEQMAKDKVSLTCMITDFFPEDITVEWQWNGQPAENYKNTQPIMDTDGSYFIYSKLNVQKSNWEAGNTFTCSVLHEGLHNHHTEKSLSHSPG
light: ALTQPASVSANPGETVKIACSGGDYYSYYYGWYQQKAPGSALVTVIYSDDKRPSDIPSRFSGSASGSTATLTITGVRAEDEAVYYCGGYDYSTYANAFGAGTTLTVLGQPKSSPSVTLFPPSSEELETNKATLVCTITDFYPGVVTVDWKVDGTPVTQGMETTQPSKQSNNKYMASSYLTLTARAWERHSSYSCQVTHEGHTVEKSLSRADCS
For B2, which “molar ratio to Drug A at which interference was mitigated, SPRCA” value is on record?
Its value is ≥ 1.25 x molar ratio to Drug A.

B3: anti-SIRP multimer F (antibody, mouse IgG1, N297A, V domains shown)
VH: DVQLVESGGGVVRPGESLRLSCAASGFTFSSYAMSWVRQAPGKGLEWLAGISAGGSDTYYIDSVKGRFTISRDNPKNSLYLQMSSLTAEDTAVYYCARETWNHLFDYWGLGTLVTVSS
VL: ALTQPASVSANPGETVKITCSGGDYYSTYYAWYQQKSPGSAPVTVIHSDDKRPSDIPSRFSGSASGSAATLIITGVRVEDEAVYYCGGYDGRTYINTFGAGTTLTVLG
Which “molar ratio to Drug A at which interference was mitigated, SPRCA” value does the source give for B3 here?
The value was ≥ 1.25 x molar ratio to Drug A.

B4: anti-SIRP multimer D (antibody, V domains shown)
VH: DVQLVESGGGVVRPGESLRLSCAASGFTFSSNAMSWVRQAPGKGLEWLAGISAGGSDTYYPASVKGRFTISRDNSKNTLYLQMNTLTAEDTAVYYCARETWNHLFDYWGLGTLVTVSS
VL: ALTQPASVSANPGETVKIACSGGDYYSYYYGWYQQKAPGSALVTVIYSDDKRPSDIPSRFSGSASGSTATLTITGVRAEDEAVYYCGGYDYSTYANAFGAGTTLTVL
With B4 as the binder, how does the “molar ratio to Drug A (130 nM) at which no agglutination was observed, IAT tube assay” value read?
Its value is 2.5 x molar ratio to Drug A.

What about the “molar ratio to Drug A (130 nM) at which no interference was observed, SPRCA” value of the same binder?
Its value is ≥ 0.63 x molar ratio to Drug A.
